Experimental data: patent US12723255B2, “Herbicide tolerance genes and methods of use thereof” (priority 2014, dated 2026)
Positions count from the first letter of the chain named. Like-named read-outs stand apart in the source and are kept apart here.

B1: MON-HT1: engineered oxygenase protein, amino acid sequence SEQ ID NO:14 (protein)
chain: MHAALTPLTNKYRFIDVQPLTGVLGAEITGVDLREPLDDSTWNEILDAFHTYQVIYFPGQAITNEQHIAFSRRFGPVDPVPILKSIEGYPEVQMIRREANESSRFIGDDWHTDSTFLDAPPAAVVMRAIEVPEYGGDTGFLSMYSAWETLSPTMQATIEGLNVVHSATKVFGSLYQATNWRFSNTSVKVMDVDAGDRETVHPLVVTHPVTGRRALYCNQVYCQKIQGMTDAESKSLLQFLYEHATKFDFTCRVRWKKDQVLVWDNLCTMHRAVPDYAGKFRYLTRTTVAGDKPSR
B2: MON-HT2: engineered oxygenase protein, amino acid sequence SEQ ID NO:18 (protein)
chain: B1 chain with I82L, F105V, T112S, V273A
B3: MON-HT3: engineered oxygenase protein, amino acid sequence SEQ ID NO:22 (protein)
chain: MHAALSPLSQRFERIAVQPLTGVLGAEITGVDLREPLDDSTWNEILDAFHTYQVIYFPGQAITNEQHIAFSRRFGPVDPVPLLKSIEGYPEVQMIRREANESGRVIGDDWHTDSTFLDAPPAAVVMYAKEVPPYGGDTLFASMYTAWETLSPTMQATIEGLNVVHSATRVFGSLYQAQNRRFSNTSVKVMDVDAGDRETVHPLVVTHPETGRKGLYVNQVYCQRIEGMSEKESEPLLSFLFAHATKPEFTCRVRWQEGQVLVWDNLCTQHFAVPDYAGKFRYLTRTTVGGVRPAR
B4: MON-HT4: engineered oxygenase protein, amino acid sequence SEQ ID NO:25 (protein)
chain: MHAALTPLTNKYRFIDVQPLTGVLGAEITGVDLREPLDDSTWNEILDAFHTYQVIYFPGQAITNEQHIAFSRRFGPVDPVPLLKSIEGYPEVQMIRREANESGRVIGDDWHTDSTFLDAPPAAVVMYAREVPPYGGDTGFLSMYTAWETLSPTMQATIEGLNVVHSATRVFGSLYQAQNRRYSNTSVKVMDVDAGDRETVHPLVVSHPVTGRRALYCNQVYCQRIEGMTDAESKSLLQFLYEHATKFDFTCRVRWKKDQVLVWDNLCTMHRAVPDYAGKFRYLTRTTVAGDKPSR

How the values were obtained:
[1] = kinetic analysis, non-endpoint assay at 23° C.; assay type: biochemical
Outline: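 Purified C-terminal 6-His-tagged recombinant enzymes expressed in bacteria; quizalofop-P or 2,4-D as substrate. Vmax reported as specific activity (umol herbicide product mg enzyme-1 min-1) and Km as mM herbicide substrate, with standard error.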

[2] = enzyme activity assay at 23° C. with purified enzyme; assay type: biochemical; settings: for maximum activity as a percentage of the wild-type enzyme's activity, Fluazifop / maximum activity as a percentage of the wild-type enzyme's activity, Dichlorprop / maximum activity as a percentage of the wild-type enzyme's activity, Haloxyfop / maximum activity as a percentage of the wild-type enzyme's activity, Fenoxaprop: wild-type set at 100%; for maximum activities for all four substrates compared with the wild-type enzyme: haloxyfop, fenoxaprop, fluazifop and dichlorprop; for maximum activity as a percentage of the wild-type enzyme's activity, Haloxyfop: purified enzyme
Method: The enzyme activity of MON-HT protein variants with haloxyfop, fenoxaprop, fluazifop, and dichlorprop as substrates was determined using the enzyme activity assay conducted at 23° C. with purified enzyme. The activity was recorded as the maximum activity as a percentage of the wild-type enzyme's activity, which was set at 100%.

F1 hybrid maize plants = test: efficacy field trial for 2,4-D tolerance; assay type: in vivo; settings: for average injury rating, V4 Growth Stage, 2x 2,4-D / average injury rating, V8 Growth Stage, 2x 2,4-D / average injury rating, V4 Growth Stage, 4x 2,4-D / average injury rating, V8 Growth Stage, 4x 2,4-D / average injury rating, V4 Growth Stage, 8x 2,4-D / average injury rating, V8 Growth Stage, 8x 2,4-D / average injury rating, V4 Growth Stage, 16x 2,4-D / average injury rating, V8 Growth Stage, 16x 2,4-D: scale 0 to 100, with CTP unless label says no CTP; for average injury rating, V4 Growth Stage, 2x 2,4-D / average injury rating, V8 Growth Stage, 2x 2,4-D: 2 lb ae/acre at VE-V2, V4, V8; for average injury rating, V4 Growth Stage, 4x 2,4-D / average injury rating, V8 Growth Stage, 4x 2,4-D: 4 lb ae/acre at VE-V2, V4, V8; for average injury rating, V4 Growth Stage, 8x 2,4-D / average injury rating, V8 Growth Stage, 8x 2,4-D: 8 lb ae/acre at VE-V2, V4, V8; for average injury rating, V4 Growth Stage, 16x 2,4-D / average injury rating, V8 Growth Stage, 16x 2,4-D: 16 lb ae/acre at VE-V2, V4, V8
Method: Separate trait efficacy field trials for quizalofop-P and 2,4-D were conducted at two locations cach with F1 hybrid transgenic plants produced by crossing an inbred plant containing maize event MON89034 with an R1 plant containing MON-HT55 (with a CTP), MON-HTI (with or without a CTP), MON-HT2 (with or without a CTP), MON-HT3 (with a CTP), MON-HT4 (with a CTP), MON-HT5 (with a CTP), MON-HT6 (with a CTP), or MON-HT7 (with a CTP). Transgenic F1 hybrid plants containing maize events NK603×MON89034 were used for comparison as a control.
In the efficacy field trial for 2,4-D tolerance, one of four herbicide treatments was used: (1) 2,4-D amine at 2 lb ac/acre (2×) plus 0.25% v/v non-ionic surfactant (NIS) applied to VE to V2 followed by V4 followed by V8; (2) 2,4-D amine at 4 lb ac/acre (4×) plus 0.25% v/v NIS applied to VE to V2 followed by V4 followed by V8; (3) 2,4-D amine at 8 lb ac/acre (8×) plus 0.25% v/v NIS applied to VE to V2 followed by V4 followed by V8 maize; or (4) 2,4-D amine at 16 lb ac/acre (16×) plus 0.25% v/v NIS applied to VE to V2 followed by V4 followed by V8. Plots were visually rated as above. Tables 14 and 15 show the average injury ratings after herbicide application at V4 or V8 growth stage, respectively.

[3] = 23° C., purified His-tagged protein, standard error in parenthetical
[4] = 23° C., purified His-tagged protein, standard error in parenthetical, read-out: Km Quizalofop
[5] = standard error in parenthetical, NDB = activity not robust enough for kinetic characterization
[6] = standard error in parenthetical, NDB = activity not robust enough for kinetic characterization, read-out: Km 2,4-D

Row | Molecule | Vmax Quizalofop [1, 3] | Km [1, 4] | Vmax 2,4-D [1, 5] | Km [1, 6] | maximum activity as a percentage of the wild-type enzyme's activity, Fluazifop [2] | average injury rating, V4 Growth Stage, 2x 2,4-D (F1 hybrid maize plants) | average injury rating, V8 Growth Stage, 2x 2,4-D (F1 hybrid maize plants) | average injury rating, V4 Growth Stage, 4x 2,4-D (F1 hybrid maize plants) | average injury rating, V8 Growth Stage, 4x 2,4-D (F1 hybrid maize plants) | average injury rating, V4 Growth Stage, 8x 2,4-D (F1 hybrid maize plants) | average injury rating, V8 Growth Stage, 8x 2,4-D (F1 hybrid maize plants) | average injury rating, V4 Growth Stage, 16x 2,4-D (F1 hybrid maize plants) | average injury rating, V8 Growth Stage, 16x 2,4-D (F1 hybrid maize plants) | maximum activity as a percentage of the wild-type enzyme's activity, Dichlorprop [2] | maximum activities for all four substrates compared with the wild-type enzyme [2] | maximum activity as a percentage of the wild-type enzyme's activity, Haloxyfop [2] | maximum activity as a percentage of the wild-type enzyme's activity, Fenoxaprop [2] | further results
1 | B1 | 0.76 (−0.04) umol herbicide product mg enzyme-1 min-1 | 170 µM | 0.95 (−0.03) umol herbicide product mg enzyme-1 min-1 | 30 µM | 67% | 0.0 | 1.3 | 0.0 | 1.5 | 5.0 | 8.3 | 6.3 | 16.3 | – | – | – | – | Vmax for 2,4-D higher than that of the wild-type enzyme [1]: 9.5 fold; Vmax for quizalofop-P relative to the wild-type enzyme ([1]; 23° C.): about half; Vmax 2,4-D ([1]; Table 10 series, unit as defined): 1.17 (0.01) umol herbicide product mg enzyme-1 min-1; Km ([1]; Table 10 series, unit as defined, read-out: Km 2,4-D): 30 µM; Vmax Quizalofop ([1]; Table 10 series, 23° C., unit as defined): 1.62 (0.05) umol herbicide product mg enzyme-1 min-1; Km ([1]; Table 10 series, 23° C., unit as defined, read-out: Km Quizalofop): 120 µM; average injury rating, V8 Growth Stage, 2x 2,4-D (F1 hybrid maize plants; listed as MON-HT1 (no CTP)): 2.5; average injury rating, V8 Growth Stage, 4x 2,4-D (F1 hybrid maize plants; listed as MON-HT1 (no CTP)): 4.0; average injury rating, V4 Growth Stage, 8x 2,4-D (F1 hybrid maize plants; listed as MON-HT1 (no CTP)): 5.8; average injury rating, V8 Growth Stage, 8x 2,4-D (F1 hybrid maize plants; listed as MON-HT1 (no CTP)): 8.8; average injury rating, V4 Growth Stage, 16x 2,4-D (F1 hybrid maize plants; listed as MON-HT1 (no CTP)): 12.5; average injury rating, V8 Growth Stage, 16x 2,4-D (F1 hybrid maize plants; listed as MON-HT1 (no CTP)): 13.8
2 | B2 | 1.41 (−0.11) umol herbicide product mg enzyme-1 min-1 | 410 µM | 0.23 (−0.01) umol herbicide product mg enzyme-1 min-1 | 40 µM | – | 1.3 | 2.5 | 0.0 | 3.3 | 4.5 | 10.0 | 7.5 | 15.0 | 92% | – | – | – | average injury rating, V8 Growth Stage, 2x 2,4-D (F1 hybrid maize plants; listed as MON-HT2 (no CTP)): 5.0; average injury rating, V4 Growth Stage, 4x 2,4-D (F1 hybrid maize plants; listed as MON-HT2 (no CTP)): 2.5; average injury rating, V8 Growth Stage, 4x 2,4-D (F1 hybrid maize plants; listed as MON-HT2 (no CTP)): 8.8; average injury rating, V4 Growth Stage, 8x 2,4-D (F1 hybrid maize plants; listed as MON-HT2 (no CTP)): 13.8; average injury rating, V8 Growth Stage, 8x 2,4-D (F1 hybrid maize plants; listed as MON-HT2 (no CTP)): 13.8; average injury rating, V4 Growth Stage, 16x 2,4-D (F1 hybrid maize plants; listed as MON-HT2 (no CTP)): 21.3; average injury rating, V8 Growth Stage, 16x 2,4-D (F1 hybrid maize plants; listed as MON-HT2 (no CTP)): 25.0; injury rating after 2,4-D application at V4 growth stage at 8× (F1 hybrid maize plants; without the CTP): 13.75%; injury rating after 2,4-D application at V4 growth stage at 16× (F1 hybrid maize plants; without the CTP): 21.25%
3 | B3 | 0.77 (−0.04) umol herbicide product mg enzyme-1 min-1 | 380 µM | 0.10 (−0.01) umol herbicide product mg enzyme-1 min-1 | 270 µM | 60% | 3.8 | 5.5 | 6.3 | 5.5 | 8.8 | 11.3 | 11.3 | 13.8 | 100% | lower than, or equal to | 67% | 83% | –
4 | B4 | 0.30 (−0.02) umol herbicide product mg enzyme-1 min-1 | 240 µM | NDB | – | 52% | 0.0 | 2.0 | 1.3 | 8.8 | 8.8 | 12.5 | 18.8 | 21.3 | 39% | lower than, or equal to | 49% | 53% | Km 2,4-D [1, 5]: NDB
